T1: MD-2 (Homo sapiens, UniProt Q9Y6Y9)
T1 construct: expressed in transfected cells; host or cells: HEK293
T1 sequence (Q9Y6Y9 19-160): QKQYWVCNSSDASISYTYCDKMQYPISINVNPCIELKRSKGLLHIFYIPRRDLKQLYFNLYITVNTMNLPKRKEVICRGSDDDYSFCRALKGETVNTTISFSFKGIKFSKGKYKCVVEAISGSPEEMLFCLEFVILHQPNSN

B1: MD-2s: alternatively spliced isoform of human MD-2 lacking exon 2, with D38G substitution; expressed and secreted protein sequences in Table 1 (protein, listed as Homo sapiens)
chain 1: MLPFLFFSTLFSSIFTEAQKQYWVCNSSDASISYTYCGRDLKQLYFNLYITVNTMNLPKRKEVICRGSDDDYSFCRALKGETVNTTISFSFKGIKFSKGKYKCVVEAISGSPEEMLFCLEFVILHQPNSN
chain 2: EAQKQYWVCNSSDASISYTYCGRDLKQLYFNLYITVNTMNLPKRKEVICRGSDDDYSFCRALKGETVNTTISFSFKGIKFSKGKYKCVVEAISGSPEEMLFCLEFVILHQPNSN

Tests used:
TLR4-expressing cells = test: Surface staining of TLR4-mCitrine HEK293T cells (flow cytometry, confocal imaging); format: cell-based, human; settings: myc-tagged protein transfected into TLR4-mCitrine HEK293T cells
Source text: HEK293T cells stably expressing fluorescent TLR4-mCitrine were transiently transfected with myc-tagged wild-type MD-2 or MD-2s and surface-stained with anti-myc antibody. (a) Cells analyzed by flow cytometry were gated to select single cells and the TLR4-positive population. Anti-myc staining of TLR4-mCitrine positive cells expressing MD-2 (top panel, thick line) or MD-2s (middle panel, thick line) and untransfected cells (thin line) is shown. […] Co-localization of TLR4 and MD-2 isoforms on the cell surface is visualized in yellow.
HEK293T cells were retrovirally transduced to generate a cell line stably expressing TLR4-mCitrine. TLR4-mCitrine cells in 12-well dishes were transfected with 300 ng of plasmid encoding myc-tagged MD2 or MD2S using GeneJuice lipofection reagent (Novagen) and cultured overnight. Cells were dislodged by scraping, washed once with cold PBS and incubated with a 1:50 dilution of anti-myc Alexa 647-conjugated antibody (AbD Serotec) at 4° C. for 30 minutes. Cells were washed four times with PBS for and fluorescence was assessed with an LSR II flow cytometer (BD Biosciences) running FACS Diva software (BD Biosciences). Data was processed using FlowJo software v8.6.3 (Tree Star).
TLR4-mCitrine cells were cultured on glass-bottom confocal dishes (MatTek) coated with collagen. […]

MD-2 = molecular target: T1, MD-2; test: Co-immunoprecipitation with Flag-tagged wild-type MD-2 in HEK293 cells; format: binding; settings: Myc-tagged protein with Flag-tagged MD-2, co-immunoprecipitation
Method: (A) HEK293 cells were transiently transfected with plasmids encoding for Flag-tagged MD-2 (lanes 1-4) in combination with either a Myc-tagged MD-2 (lanes 1 and 3) or a Myc-tagged MD-2s (lanes 2 and 4) expressing plasmid. Co-immunoprecipitation experiments were then performed using an anti-Flag antibody (lanes 3-4) or an IgG isotype control antibody (lane 1-2). Samples were fractionated by SDS-PAGE and immunoblotting with an anti-Myc antibody was performed. (B) Structural analysis of MD-2. Structural features representing the TLR4 binding sites (red); the ligand contacts (dark blue); the ligand binding pocket (light blue) and the TLR4 secondary contacts (pink) are illustrated. The residues deleted in MD-2s (yellow) are also shown. (C) HEK293 cells were transiently transfected with plasmids encoding for Myc-tagged MD-2 (lanes 3 and 4) or a Myc-tagged MD-2s (lanes 5 and 6) expressing plasmid and treated with LPS-biotin as indicated. Co-immunoprecipitation experiments were then performed using an anti-Myc antibody. […]
HEK 293 cells were seeded into 100 mm dishes (1.5×10^6) 24 h prior to transfection. […] For immunoblotting, primary antibodies were detected using horseradish peroxidase-conjugated secondary antibodies, followed by enhanced chemiluminescence (Amersham Biosciences). […]

[1] = system: lung inflammation induced by LPS; test: LPS-induced lung inflammation in mice after in vivo plasmid transfection; parameters: species or system mouse
Method: (A) MD-2s expression can be detected following in vivo transfection. RNA was isolated from lung tissue of wild-type mice at 48 h post in vivo transfection with control vector (lane 1), Myc-MD2 (lane 2) or a plasmid encoding MycMD-2s (lane 3) and reverse transcribed into cDNA. RT-PCR using human MD-2-specific primers (lanes 1-3) or murine GAPDH primers (lanes 4-6), was then performed. (B-E) Wild-type mice were transfected with control vector (EV, open bars) or a plasmid encoding MD-2s (black bars) 48 h before being challenged intratracheally with PBS or 10 μg of LPS, for 24 h. MD-2s expression reduced (B) IL-6 concentration in bronchoalveolar lavage fluid (BALF), (C) KC concentration in the lung homogenate, and (D) recruitment of polymorphonuclear leukocytes (PMN) into the lung.

[2] = plasmid encoding MD-2s 48 h before 10 μg LPS intratracheally, 24 h, vs control vector

Molecule	Binding to the surface of TLR4-expressing cells (TLR4-expressing cells)	Interaction with wild-type MD-2 (MD-2)	Percentage of GR-1+CD11b+ cells in the lung following LPS challenge ([1]; flow cytometry, control without MD-2s expression 66.7%) [%]	IL-6 concentration in bronchoalveolar lavage fluid (BALF) [1, 2]	KC concentration in the lung homogenate [1, 2]	Recruitment of polymorphonuclear leukocytes (PMN) into the lung [1, 2]
MD-2: full-length human wild-type MD-2, co-receptor of TLR4 [reference compound]	bind to the surface of TLR4-expressing cells	can homodimerise	–	–	–	–
B1	bind to the surface of TLR4-expressing cells	associates with wild-type MD-2	26.1	reduced	reduced	reduced

From patent US9512196B2, “Short-form human MD-2 as a negative regulator of toll-like receptor 4 signaling” (Cedars-Sinai Medical Center, priority 2008, dated 2016)
